Molecular target: T1, full-length His-tagged SARS-CoV-2 spike protein (wild-type) (SARS-CoV-2, wild-type (Wuhan-Hu-1), UniProt P0DTC2)
T1 construct: also called full-length S-protein; full-length Spike protein; source: CHO Express cells, cell medium purified by Ni-IMAC; not shown: His-tag, C-terminal, kept
Experiment: BLI
Details: both partners purified

B1: Nb20 nanobody (VHH)
VHH: QVQLVESGGGLVQAGGSLRLSCAVSGAGAHRVGWFRRAPGKEREFVAAIGASGGMTNYLDSVKGRFTISRDNAKNTIYLQMNSLKPQDTAVYYCAARDIETAEYIYWGQGTQVTVSS
notes: not shown: ecotin, N-terminal, cleaved; His-tag, N-terminal, cleaved
  Kd: ~1 nM

From article PMC10045489 (Bioengineering, 2023)
